Measurements reported in patent publication US20150094211, “POLYMERASE COMPOSITIONS, METHODS OF MAKING AND USING SAME” (LIFE TECHNOLOGIES CORPORATION, published 2015).

How the values were obtained:
Settings in all cases: label: fluorescein-dT at N (position 34); hairpin with 5' overhang
[1] = molecular target: T1, Bst DNA polymerase D480R (LR1; D775R in full-length numbering) (D480R); assay: fluorescence dissociation with excess hairpin oligo 173 competitor (SEQ 22); 30 mM Tris pH 7.5, 20 mM NaCl; mutant dissociates slower
T1 chain: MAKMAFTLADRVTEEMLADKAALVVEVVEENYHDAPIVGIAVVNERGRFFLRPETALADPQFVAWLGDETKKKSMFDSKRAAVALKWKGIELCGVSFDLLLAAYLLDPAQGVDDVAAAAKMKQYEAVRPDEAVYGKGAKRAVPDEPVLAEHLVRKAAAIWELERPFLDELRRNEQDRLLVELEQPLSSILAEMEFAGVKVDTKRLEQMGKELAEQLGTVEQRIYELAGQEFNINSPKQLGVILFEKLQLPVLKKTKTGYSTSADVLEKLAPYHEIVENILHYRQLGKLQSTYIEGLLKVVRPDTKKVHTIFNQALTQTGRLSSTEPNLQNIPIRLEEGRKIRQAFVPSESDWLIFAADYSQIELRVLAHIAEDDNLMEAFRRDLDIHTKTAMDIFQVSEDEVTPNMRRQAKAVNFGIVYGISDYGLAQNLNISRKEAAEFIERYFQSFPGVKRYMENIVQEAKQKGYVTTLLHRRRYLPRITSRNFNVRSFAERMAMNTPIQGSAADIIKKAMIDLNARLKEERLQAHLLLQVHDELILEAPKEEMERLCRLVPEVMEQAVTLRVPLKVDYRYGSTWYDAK
Experimental: (§1) To perform the assay, reactions (75 μl) containing 30 mM Tris (pH 7.5), 20 mM NaCl, 50 nM oligo 221, and ˜10-200 nM partially polymerase samples (prepared according to Example 1) were assembled in 96-well plates. Baseline readings were then taken on the spectrophotometer using 490 nm excitation and 525 nm emission wavelengths. The 173 competitor oligo (2 μM final concentration) was then rapidly added to each well and plates were rapidly returned to the spectrophotometer for readings every 30 seconds for 5 minutes. The dissociation rate was calculated by fitting the data to a one-phase exponential decay equation using PrismGraph® according to the following formula: […]
(§2) Various exemplary mutations were introduced via site-directed mutagenesis into exemplary reference polymerases to generate modified polymerases. In this example, reference polymerase SEQ ID NO: 2 was modified to contain a further amino acid mutation (D480R). Reference polymerase SEQ ID NO: 15 was also modified to contain a further amino acid mutation (D732R). Additionally, reference polymerase SEQ ID NO: 18 was modified to contain amino acid mutation (D505R). The modified polymerases were sequence verified, and expressed essentially according to the procedure of Example 1. The modified polymerases were then assayed to measure dissociation rate constant essentially according to the procedure of Example 2.

[2] = molecular target: Klenow fragment D505R (LR1) (UniProt P00582 SEQ:2-606, D505R); assay: as above
Experimental: as §1, §2

[3] = molecular target: Taq DNA polymerase D732R (LR1 Taq) (UniProt P19821 SEQ:1-832, D732R); assay: as above
Experimental: as §1
(§3) Various exemplary mutations were introduced via site-directed mutagenesis into an exemplary reference polymerase (wild-type Taq DNA polymerase SEQ ID NO: 15) to generate a series of modified Taq DNA polymerases. In this example, reference polymerase, SEQ ID NO: 15 was modified to contain a single amino acid mutation selected from D732R, E745Q or E471K. Each modified polymerase was sequence verified, and expressed essentially according to Example 1. The modified polymerases were then assayed to measure dissociation rate constant essentially according to Example 2.

[4] = molecular target: T2, Bst DNA polymerase F448K (labelled 488K in the text for FIG. 2) (F448K); assay: dissociation time constant at varying salt; values only in figure; mutation printed as 488K and F448K
T2 chain: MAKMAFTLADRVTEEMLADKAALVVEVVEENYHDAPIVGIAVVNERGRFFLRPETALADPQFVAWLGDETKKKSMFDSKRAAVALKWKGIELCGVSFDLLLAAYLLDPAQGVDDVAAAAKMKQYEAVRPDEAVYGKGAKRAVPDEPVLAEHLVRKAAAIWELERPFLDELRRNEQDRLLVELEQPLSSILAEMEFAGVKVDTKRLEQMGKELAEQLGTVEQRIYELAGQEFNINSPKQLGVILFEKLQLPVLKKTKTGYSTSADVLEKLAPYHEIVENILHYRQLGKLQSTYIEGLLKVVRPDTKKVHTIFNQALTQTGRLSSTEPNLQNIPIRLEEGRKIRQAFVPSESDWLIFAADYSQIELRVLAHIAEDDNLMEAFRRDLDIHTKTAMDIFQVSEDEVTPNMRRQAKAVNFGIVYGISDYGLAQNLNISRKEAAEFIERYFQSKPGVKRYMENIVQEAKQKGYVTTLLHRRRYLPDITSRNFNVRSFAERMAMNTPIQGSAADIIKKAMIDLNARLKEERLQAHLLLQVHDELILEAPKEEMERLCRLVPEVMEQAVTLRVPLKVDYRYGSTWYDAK
Experimental: (§4) Dissociation is measured by the decrease in fluorescence that occurs when the Bst polymerase dissociates from the template. Dissociation is initiated by adding a vast excess of unlabeled, competitor DNA (hairpin oligo 173) having the following nucleotide sequence:
as §1

[5] = molecular target: T3, Bst DNA polymerase G425R (G425R); assay: dissociation time constant at varying salt; values only in figure
T3 chain: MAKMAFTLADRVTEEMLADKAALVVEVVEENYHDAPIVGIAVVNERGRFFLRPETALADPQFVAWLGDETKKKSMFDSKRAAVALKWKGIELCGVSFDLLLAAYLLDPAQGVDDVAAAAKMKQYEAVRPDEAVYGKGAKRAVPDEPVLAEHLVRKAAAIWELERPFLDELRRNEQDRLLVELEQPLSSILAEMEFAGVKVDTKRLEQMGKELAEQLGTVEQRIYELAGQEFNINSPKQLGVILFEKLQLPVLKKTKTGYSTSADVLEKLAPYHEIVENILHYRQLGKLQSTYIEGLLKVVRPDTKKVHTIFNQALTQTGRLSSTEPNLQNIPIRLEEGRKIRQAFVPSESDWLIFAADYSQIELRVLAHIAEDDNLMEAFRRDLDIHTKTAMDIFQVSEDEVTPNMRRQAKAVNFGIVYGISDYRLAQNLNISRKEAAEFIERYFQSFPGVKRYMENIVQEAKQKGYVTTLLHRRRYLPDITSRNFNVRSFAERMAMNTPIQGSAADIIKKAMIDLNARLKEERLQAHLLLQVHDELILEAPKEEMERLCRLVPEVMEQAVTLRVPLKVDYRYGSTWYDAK
Experimental: as §4, §1

[6] = molecular target: T4, Bst DNA polymerase D144K (D144K); assay: as above
T4 chain: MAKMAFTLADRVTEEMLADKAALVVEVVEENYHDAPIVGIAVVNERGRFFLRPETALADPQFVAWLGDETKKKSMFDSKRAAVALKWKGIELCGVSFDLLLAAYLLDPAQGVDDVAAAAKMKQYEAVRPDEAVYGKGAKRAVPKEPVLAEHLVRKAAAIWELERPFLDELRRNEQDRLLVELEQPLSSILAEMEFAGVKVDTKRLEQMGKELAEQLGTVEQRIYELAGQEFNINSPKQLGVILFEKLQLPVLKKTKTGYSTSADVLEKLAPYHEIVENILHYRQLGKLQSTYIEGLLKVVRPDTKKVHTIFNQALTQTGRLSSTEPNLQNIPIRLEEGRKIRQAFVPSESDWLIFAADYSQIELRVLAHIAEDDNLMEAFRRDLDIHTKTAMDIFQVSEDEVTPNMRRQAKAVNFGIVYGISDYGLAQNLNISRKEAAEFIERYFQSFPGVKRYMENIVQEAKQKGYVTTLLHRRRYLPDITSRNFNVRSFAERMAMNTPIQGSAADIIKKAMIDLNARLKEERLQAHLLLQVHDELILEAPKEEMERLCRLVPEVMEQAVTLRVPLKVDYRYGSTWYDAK
Experimental: as §4, §1

[7] = molecular target: Taq DNA polymerase E745Q (UniProt P19821 SEQ:1-832, E745Q); assay: fluorescence dissociation with excess hairpin oligo 173 competitor (SEQ 22); mutant dissociates slower
Experimental: as §1, §3

[8] = molecular target: Taq DNA polymerase E471K (UniProt P19821 SEQ:1-832, E471K); assay: as above
Experimental: as §1, §3

[9] = molecular target: Klenow fragment (wild type) (UniProt P00582 SEQ:2-606); assay: reference; dissociates 13-fold faster than D505R; rate constant only in figure
[10] = molecular target: T5, Bst DNA polymerase large fragment (Bst 1.0, reference); assay: reference; dissociates 4.7-fold faster than D480R; rate constant only in figure
T5 chain: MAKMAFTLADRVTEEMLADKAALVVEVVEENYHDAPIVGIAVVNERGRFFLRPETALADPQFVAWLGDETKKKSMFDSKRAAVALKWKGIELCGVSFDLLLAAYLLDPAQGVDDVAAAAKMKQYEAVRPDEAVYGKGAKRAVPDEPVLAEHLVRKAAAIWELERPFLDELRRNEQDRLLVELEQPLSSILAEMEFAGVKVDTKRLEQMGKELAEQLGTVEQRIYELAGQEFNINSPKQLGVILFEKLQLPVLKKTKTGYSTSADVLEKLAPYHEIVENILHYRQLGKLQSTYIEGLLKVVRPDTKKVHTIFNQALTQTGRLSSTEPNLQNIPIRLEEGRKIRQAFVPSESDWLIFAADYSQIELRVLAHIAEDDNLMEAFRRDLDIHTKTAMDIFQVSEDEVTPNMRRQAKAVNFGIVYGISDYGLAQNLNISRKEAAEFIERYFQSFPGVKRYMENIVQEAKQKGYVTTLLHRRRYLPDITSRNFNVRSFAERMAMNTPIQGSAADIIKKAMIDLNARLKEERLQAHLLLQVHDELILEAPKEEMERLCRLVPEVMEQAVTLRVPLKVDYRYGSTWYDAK

Taq DNA polymerase E471K, sequence (P19821 whole entry E471K): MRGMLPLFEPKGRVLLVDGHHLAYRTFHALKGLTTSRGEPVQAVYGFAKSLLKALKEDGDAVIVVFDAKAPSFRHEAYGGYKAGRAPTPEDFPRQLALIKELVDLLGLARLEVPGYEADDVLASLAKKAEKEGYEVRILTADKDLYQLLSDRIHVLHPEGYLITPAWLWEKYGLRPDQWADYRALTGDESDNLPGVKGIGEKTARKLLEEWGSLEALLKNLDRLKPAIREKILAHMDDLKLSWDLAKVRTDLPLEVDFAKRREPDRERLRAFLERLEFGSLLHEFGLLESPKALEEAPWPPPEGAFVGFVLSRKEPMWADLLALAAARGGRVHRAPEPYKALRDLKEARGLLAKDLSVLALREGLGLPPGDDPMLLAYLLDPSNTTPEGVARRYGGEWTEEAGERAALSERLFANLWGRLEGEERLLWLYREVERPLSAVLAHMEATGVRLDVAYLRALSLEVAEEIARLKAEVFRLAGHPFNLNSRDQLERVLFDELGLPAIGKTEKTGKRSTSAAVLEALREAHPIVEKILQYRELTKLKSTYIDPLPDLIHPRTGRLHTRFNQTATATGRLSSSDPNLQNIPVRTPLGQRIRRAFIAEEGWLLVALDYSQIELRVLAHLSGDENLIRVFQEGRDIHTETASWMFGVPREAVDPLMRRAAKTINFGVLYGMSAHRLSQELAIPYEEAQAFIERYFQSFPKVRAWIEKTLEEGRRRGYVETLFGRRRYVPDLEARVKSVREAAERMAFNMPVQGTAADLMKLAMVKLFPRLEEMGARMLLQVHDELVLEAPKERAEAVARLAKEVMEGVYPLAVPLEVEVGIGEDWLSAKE
Taq DNA polymerase D732R (LR1 Taq), sequence (P19821 whole entry D732R): as the sequence (P19821 whole entry E471K) above, with K471E, D732R counted along it
Taq DNA polymerase E745Q, sequence (P19821 whole entry E745Q): as the sequence (P19821 whole entry E471K) above, with K471E, E745Q counted along it

Binder: TTTTTTTGCAGGTGACAGGTTTTTCCTGTCACCTGC (structured_DNA, [fluorescein-dT at 34]) [oligo 221]
- binding signal [1]: 4.7 fold (koff reference/koff mutant)
- binding signal [2]: 13 fold (koff wt/koff mutant)
- binding signal [3]: 14.1 fold (koff wt/koff mutant)
- binding result [4]: binds
- binding result [5]: binds
- binding result [6]: binds
- binding signal [7]: 4.7 fold (koff wt/koff mutant)
- binding signal [8]: 5 fold (koff wt/koff mutant)
- binding result [9]: binds
- binding result [10]: binds
